In publication PMC3624071 (Biochemistry, 2013):

How the values were obtained:
[1] = molecular target: T1, EutB subunit of ethanolamine ammonia-lyase (EAL) from the EALH6 construct (S. typhimurium, UniProt P19264 1-453); assay: pull-down
T1 sequence: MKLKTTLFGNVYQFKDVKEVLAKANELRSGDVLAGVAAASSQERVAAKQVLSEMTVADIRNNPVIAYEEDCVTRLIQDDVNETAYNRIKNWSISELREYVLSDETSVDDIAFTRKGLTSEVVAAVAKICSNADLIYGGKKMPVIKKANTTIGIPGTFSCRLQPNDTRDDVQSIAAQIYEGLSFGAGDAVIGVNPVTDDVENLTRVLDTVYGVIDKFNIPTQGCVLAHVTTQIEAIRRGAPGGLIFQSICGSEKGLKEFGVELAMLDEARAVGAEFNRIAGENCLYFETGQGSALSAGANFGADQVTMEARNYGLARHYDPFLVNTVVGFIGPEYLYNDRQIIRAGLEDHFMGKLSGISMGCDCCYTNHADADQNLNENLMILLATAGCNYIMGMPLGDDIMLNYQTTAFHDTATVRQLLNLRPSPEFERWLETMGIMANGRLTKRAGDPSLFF

[2] = molecular target: T1, EutB subunit of ethanolamine …; assay: pull-down; remark: listed apart in the source

B1: EutC subunit of ethanolamine ammonia-lyase (EAL) from the EALH6 construct (natural protein)
chain: MDQKQIEEIVRSVMASMGQDVPQPAAPSTQEGAKPQCAAPTVTESCALDLGSAEAKAWIGVENPHRADVLTELRRSTAARVCTGRAGPRPRTQALLRFLADHSRSKDTVLKEVPEEWVKAQGLLEVRSEISDKNLYLTRPDMGRRLSPEAIDALKSQCVMNPDVQVVVSDGLSTDAITANYEEILPPLLAGLKQAGLNVGTPFFVRYGRVKIEDQIGEILGAKVVILLVGERPGLGQSESLSCYAVYSPRVATTVEADRTCISNIHQGGTPPVEAAAVIVDLAKRMLEQKASGINMTR
B1 was tested, and the “subunit molar ratio after elution with 250 mM imidazole” value [1] was 0.32 mol EutC per mol EutB and the “stoichiometry N” value [2] was 1.01 mol EutC per mol EutB.
